Patent US20150118286

Assays:
[1] = test system: T1, P16 peptide
T1 sequence: RRWWRRYY

[2] = test system: T2, P17 peptide
T2 sequence: RRRYWYYR

[3] = test system: T3, P18 peptide
T3 sequence: RRYWYWRR

Human tyrosinase
reduction of human tyrosinase activity at 200 µM (L-dopa substrate) [1]: human tyrosinase activity was reduced by 30% for P16 | reduction of human tyrosinase activity at 200 µM (L-dopa substrate) [2]: 12% for P17 | reduction of human tyrosinase activity at 200 µM (L-dopa substrate) [3]: 25% for P18
